Assay results published in US20220289837A1 (VIB VZW, published 2022).

B1: Nanobody T2a (VHH, not shown: small tags and cut ends)
VHH: QVQLQESGGGLVQAGGSLRLSCAASGSIFRIDAMGWYRQAPGKQRELVAHSTSGGSTDYADSVKGRFTISRDNAKNTVYLQMNSLKPEDTAVYYCNADVRTRWYASNNYWGQGTQVTVSS
notes: Llama nanobody; also called Nb T2a; T2a Nb
B2: Nanobody T8 (VHH, not shown: small tags and cut ends)
VHH: QVQLQESGGGLVQPGGSLRLSCAASGSTSSINAMGWYRQAPGKQREPVAISSSGGDTRYAEPVKGRFTISRDNAQNKVYLQMNSLKPEDTAVYYCWLNWGRTSVNSWGQGTQVTVSS
notes: Llama nanobody; also called Nb T8; T8 Nb

What was measured:
[1] = target: T1, 2PT-NBD1 (human CFTR nucleotide-binding domain 1, residues 387-646, with S492P, A534P, I539T) (human, UniProt P13569 388-646, biotinylated for the ELISA (sites not given)); assay: ELISA, biotinylated 2PT-NBD1 on avidin-coated plate, nanobody titrated, anti-His detection; column head 'pEC50 (M)'
T1 construct: N-terminal His6-SUMO tag removed with Ulp1; In the T2a-T4 and T27 crystals the domain was cut by papain or subtilisin
Procedure: (a) Nanobody binding to 2PT-NBD1 measured by ELISA. Biotinylated 2PT-NBD1 was immobilized on avidin-coated plates and incubated with increasing concentration of each nanobody. Binding of nanobody was followed by immunodetection of the His-tag (see Methods). Representative curve of 3 independent experiments is shown. Error bars represent the standard deviation (SD) of duplicates. Data were normalized to maximum signal for each nanobody separately. (b) Nanobody binding to F508del-2PT-NBD1 measured by ELISA as described in panel a. (c) Nanobody T4 binding to 2PT-NBD1 and F508del-2PT-NBD1. Data were normalized to maximum signal of T4 binding to 2PT-NBD1. (d) Nanobody T8 binding to 2PT-NBD1 and F508del-2PT-NBD1. Data were normalized to maximum signal of T8 binding to 2PT-NBD1.
For dose-response assays, Nunc MaxiSorp 96-well plates (ThermoScientific), were coated with 5 μg/ml NeutrAvidin Biotin-Binding protein (ThermoScientific) overnight at 4° C. and blocked 2 h at room temperature (RT) with 2% milk in phosphate-buffered saline (PBS). Each new reagent addition was preceded by three washes with 200 μl of NBD1 buffer (20 mM HEPES pH 7.5, 150 mM NaCl, and 10% (w/v) glycerol, 10% (w/v) ethylene glycol, 2 mM ATP, 3 mM MgCl₂). Then, biotinylated purified NBD1 proteins at 5 μg/ml were immobilized 30 min at RT followed by 1 h RT incubation with 100 μl various concentrations (0-20 μg/ml) of purified nanobodies. Signal detection was followed using His-tag specific antibody (Invitrogen, catalogue number: MA1-135, 1:3000 dilution) to detect the nanobodies and secondary antibody anti-mouse coupled to horse radish peroxidase (HRP) (Millipore, catalogue number: AP308P, 1:5000 dilution). 50 μl of 1-Step UltraTMB-ELISA (ThermoScientific) was used as a substrate for the peroxidase and intensity of the reaction was proportional to absorbance measured at 450 nm with SynergyMx (BioTek) after addition of 50 μl H₂SO₄ at 1M.

[2] = target: T2, Purified human wt-CFTR (His10-SUMO*-CFTRFLAG-EGFP), PKA phosphorylated (human, UniProt P13569 1-1480, PKA phosphorylated (sites not given)); assay: ELISA, purified wt-CFTR immobilised on nickel-coated plate, nanobody titrated
T2 construct: Expressed in HEK293 cell line D165, purified on NiNTA in DMNG detergent; used for the full-length CFTR ELISA and the ATPase assays; also called FL-CFTR; full-length CFTR; not shown: N-terminal His10-SUMO* tag; FLAG tag and enhanced green fluorescent protein (EGFP)
From the text: Quantification of at least 3 independent experiments (±SEM). (g) Immunoblot of CFTR from solubilized BHK-21 cells pulled-down with His-tagged nanobodies, including a non-CFTR nanobody as a control. Eluted nanobodies-CFTR complexes were separated by SDS-PAGE and presence of CFTR was detected with mAb 596 antibody after immunoblotting. Arrows indicate the mature (band C) and immature (band B) forms of CFTR. Representative of at least 3 independent experiments. (FIG. 4H) Flow cytometry analysis of nanobodies T2a, T8 and G3a on BHK-21 cells expressing 2PT-F508del showing increased labelling for T2a and G3a, but not T8. (FIG. 4I) Quantification of data illustrated in […]. Average of 3 independent experiments (±SEM).
Strep-Tactin XT coated microplate (iba Life Science) was coated overnight at 4° C. with Twin-Strep-tagged nanobodies (5 μg/ml). […] CFTR binding was detected with monoclonal antibodies L12B4, MM13, 154, 660, 570, 596 specific to CFTR obtained from the CFTR Antibody Distribution Program (http://cftrantibodies.web.unc.edu/available-antibodies)46 and then anti-mouse-HRP antibody (Millipore, catalogue number: AP308P, 0.5 μg/ml) for 1 h 30 min at 4° C. […] Nanobody binding was detected with Myc-tag specific antibody (Sigma, catalogue number: C3956, 0.5 μg/ml) and then anti-rabbit-HRP antibody (Cell Signaling, catalogue number: 7074S, 1:1000 dilution) for 1 h 30 min at 4° C. […]

T1 sequence (P13569 388-646 V470M/S492P/A534P/I539T limits assumed): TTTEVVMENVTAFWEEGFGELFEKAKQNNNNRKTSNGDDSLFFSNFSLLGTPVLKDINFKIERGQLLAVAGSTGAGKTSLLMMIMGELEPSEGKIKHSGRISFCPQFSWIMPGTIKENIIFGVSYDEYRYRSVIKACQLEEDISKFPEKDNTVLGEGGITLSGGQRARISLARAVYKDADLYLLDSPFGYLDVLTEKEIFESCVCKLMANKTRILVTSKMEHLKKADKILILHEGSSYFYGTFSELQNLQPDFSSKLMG
T2 sequence (P13569 whole entry): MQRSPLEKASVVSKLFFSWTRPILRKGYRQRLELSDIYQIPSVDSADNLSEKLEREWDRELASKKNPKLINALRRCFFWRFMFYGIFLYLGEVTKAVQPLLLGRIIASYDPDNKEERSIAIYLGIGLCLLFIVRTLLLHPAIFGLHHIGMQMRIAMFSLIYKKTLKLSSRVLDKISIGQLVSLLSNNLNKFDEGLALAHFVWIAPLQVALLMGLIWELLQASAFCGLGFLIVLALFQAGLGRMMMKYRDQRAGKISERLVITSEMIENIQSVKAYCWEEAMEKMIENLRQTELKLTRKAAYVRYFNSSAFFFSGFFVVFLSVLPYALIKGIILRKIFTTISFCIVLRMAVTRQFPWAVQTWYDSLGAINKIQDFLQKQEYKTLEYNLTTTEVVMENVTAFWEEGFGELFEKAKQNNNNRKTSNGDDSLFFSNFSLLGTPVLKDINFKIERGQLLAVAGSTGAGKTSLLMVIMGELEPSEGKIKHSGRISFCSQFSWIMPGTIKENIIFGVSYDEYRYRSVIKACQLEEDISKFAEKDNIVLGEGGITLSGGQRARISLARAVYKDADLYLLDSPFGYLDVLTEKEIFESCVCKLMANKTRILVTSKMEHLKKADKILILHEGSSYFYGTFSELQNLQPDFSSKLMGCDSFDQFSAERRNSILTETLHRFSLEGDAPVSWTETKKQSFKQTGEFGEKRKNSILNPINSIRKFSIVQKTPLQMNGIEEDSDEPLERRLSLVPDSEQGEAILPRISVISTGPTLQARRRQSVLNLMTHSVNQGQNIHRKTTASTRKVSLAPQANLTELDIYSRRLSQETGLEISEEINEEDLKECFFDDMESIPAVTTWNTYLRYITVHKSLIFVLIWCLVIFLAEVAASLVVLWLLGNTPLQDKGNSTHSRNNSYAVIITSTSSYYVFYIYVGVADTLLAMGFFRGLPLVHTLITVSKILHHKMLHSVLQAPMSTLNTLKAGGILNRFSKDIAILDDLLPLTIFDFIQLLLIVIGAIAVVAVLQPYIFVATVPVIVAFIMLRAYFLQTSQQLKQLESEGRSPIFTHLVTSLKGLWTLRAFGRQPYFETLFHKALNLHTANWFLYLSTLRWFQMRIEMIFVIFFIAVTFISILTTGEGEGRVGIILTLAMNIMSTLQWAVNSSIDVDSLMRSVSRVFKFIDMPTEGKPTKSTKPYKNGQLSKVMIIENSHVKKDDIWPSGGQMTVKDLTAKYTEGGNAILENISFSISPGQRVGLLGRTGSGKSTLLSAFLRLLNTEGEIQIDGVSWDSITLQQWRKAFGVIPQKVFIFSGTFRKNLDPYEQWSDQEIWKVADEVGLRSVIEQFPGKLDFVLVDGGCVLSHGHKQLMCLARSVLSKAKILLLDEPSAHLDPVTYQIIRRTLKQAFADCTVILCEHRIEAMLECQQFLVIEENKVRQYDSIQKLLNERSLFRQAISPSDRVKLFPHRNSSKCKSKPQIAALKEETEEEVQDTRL

Binder	pEC50 [1]	EC50 (read off the curve) [2] [nM]
B1	7.9	~200
B2	7.9	~300
